Results published in patent publication US20200024330A1.

Key:
Assay in all cases: cell-based or functional assay
[1] = molecular target: HIV-1 Env of isolate MGRM-AE-007 (HIV-1)
[2] = molecular target: HIV-1 Env of isolate MGRM-AE-008 (HIV-1)
[3] = molecular target: HIV-1 Env of isolate MGRM-AG-001 (HIV-1)
[4] = molecular target: HIV-1 Env of isolate MGRM-AG-002 (HIV-1)
[5] = molecular target: HIV-1 Env of isolate MGRM-AG-003 (HIV-1)
[6] = molecular target: HIV-1 Env of isolate MGRM-AG-005 (HIV-1)
[7] = molecular target: HIV-1 Env of isolate MGRM-AG-006 (HIV-1)
[8] = molecular target: HIV-1 Env of isolate MGRM-AG-008 (HIV-1)
[9] = molecular target: HIV-1 Env of isolate MGRM-AG-009 (HIV-1)
[10] = molecular target: HIV-1 Env of isolate MGRM-AG-011 (HIV-1)
[11] = molecular target: HIV-1 Env of isolate MGRM-AG-012 (HIV-1)
[12] = molecular target: HIV-1 Env of isolate MGRM-AG-013 (HIV-1)
[13] = molecular target: HIV-1 Env of isolate MGRM-G-001 (subtype G) (HIV-1)
[14] = molecular target: HIV-1 Env of isolate MGRM-G-004 (subtype G) (HIV-1)
[15] = molecular target: HIV-1 Env of isolate MGRM-G-006 (subtype G) (HIV-1)
[16] = molecular target: HIV-1 Env of isolate MGRM-G-009 (subtype G) (HIV-1)
[17] = molecular target: HIV-1 Env of isolate MGRM-G-011 (subtype G) (HIV-1)
[18] = molecular target: HIV-1 Env of isolate MGRM-G-013 (subtype G) (HIV-1)
[19] = molecular target: HIV-1 Env of isolate MGRM-G-014 (subtype G) (HIV-1)
[20] = molecular target: HIV-1 Env of isolate MGRM-G-015 (subtype G) (HIV-1)
[21] = molecular target: HIV-1 Env of isolate MGRM-G-016 (subtype G) (HIV-1)
[22] = molecular target: HIV-1 Env of isolate MGRM-G-017 (subtype G) (HIV-1)
[23] = molecular target: HIV-1 Env of isolate MGRM-G-019 (subtype G) (HIV-1)
[24] = molecular target: HIV-1 Env of isolate MGRM-G-024 (subtype G) (HIV-1)
[25] = molecular target: HIV-1 Env of isolate MGRM-G-025 (subtype G) (HIV-1)
[26] = molecular target: HIV-1 Env of isolate MGRM-G-027 (subtype G) (HIV-1)
[27] = molecular target: HIV-1 Env of isolate MGRM-G-028 (subtype G) (HIV-1)
[28] = molecular target: HIV-1 envelope glycoprotein (Env) of isolate MGRM-C-014, on pseudovirus (HIV-1)
[29] = molecular target: HIV-1 envelope glycoprotein (Env) of isolate MGRM-C-015, on pseudovirus (HIV-1)
[30] = molecular target: HIV-1 envelope glycoprotein (Env) of isolate MGRM-C-017, on pseudovirus (HIV-1)
[31] = molecular target: HIV-1 envelope glycoprotein (Env) of isolate MGRM-C-019, on pseudovirus (HIV-1)
[32] = molecular target: HIV-1 envelope glycoprotein (Env) of isolate MGRM-C-020, on pseudovirus (HIV-1)
[33] = molecular target: HIV-1 envelope glycoprotein (Env) of isolate MGRM-C-022, on pseudovirus (HIV-1)
[34] = molecular target: HIV-1 envelope glycoprotein (Env) of isolate MGRM-C-023, on pseudovirus (HIV-1)
[35] = molecular target: HIV-1 envelope glycoprotein (Env) of isolate MGRM-C-024, on pseudovirus (HIV-1)
[36] = molecular target: HIV-1 envelope glycoprotein (Env) of isolate MGRM-C-025, on pseudovirus (HIV-1)
[37] = molecular target: HIV-1 envelope glycoprotein (Env) of isolate MGRM-C-026, on pseudovirus (HIV-1)
[38] = molecular target: HIV-1 envelope glycoprotein (Env) of isolate MGRM-C-027, on pseudovirus (HIV-1)
[39] = molecular target: HIV-1 envelope glycoprotein (Env) of isolate MGRM-C-028, on pseudovirus (HIV-1)
[40] = molecular target: aMLV envelope (negative control pseudovirus)

Substance PGT-145 (4995_P16) (antibody) has an IC50 [1] of 0.181 µg/mL, an IC50 [2] of 1.46 µg/mL and an IC50 [3] of 0.164 µg/mL. For the same substance, the IC50 [4] was 0.056 µg/mL, the IC50 [5] was greater than 50 µg/mL and the IC50 [6] was 0.045 µg/mL. For the same substance, the IC50 [7] was 6.6 µg/mL, the IC50 [8] was 0.244 µg/mL and the IC50 [9] was greater than 50 µg/mL. The IC50 [10] was 0.003 µg/mL, the IC50 [11] was greater than 50 µg/mL and the IC50 [12] was 14.4 µg/mL. The neutralization IC50 [13] was 0.028 µg/mL, the neutralization IC50 [14] was greater than 50 µg/mL and the neutralization IC50 [15] was 0.286 µg/mL. It also gave a neutralization IC50 [16] of 0.982 µg/mL, a neutralization IC50 [17] of 0.028 µg/mL and a neutralization IC50 [18] greater than 50 µg/mL. It also gave a neutralization IC50 [19] of 0.144 µg/mL, a neutralization IC50 [20] of 10.5 µg/mL and a neutralization IC50 [21] of 0.081 µg/mL. The neutralization IC50 [22] was 0.205 µg/mL, the neutralization IC50 [23] was 0.041 µg/mL and the neutralization IC50 [24] was 0.06 µg/mL. It also gave a neutralization IC50 [25] greater than 50 µg/mL, a neutralization IC50 [26] of 0.433 µg/mL and a neutralization IC50 [27] of 0.046 µg/mL. For the same substance, the IC50, pseudovirus neutralization [28] was 5.82 µg/mL, the IC50, pseudovirus neutralization [29] was 0.12 µg/mL and the IC50, pseudovirus neutralization [30] was greater than 50 µg/mL. The IC50, pseudovirus neutralization [31] was 0.005 µg/mL, the IC50, pseudovirus neutralization [32] was 0.712 µg/mL and the IC50, pseudovirus neutralization [33] was 0.492 µg/mL. For the same substance, the IC50, pseudovirus neutralization [34] was 0.201 µg/mL, the IC50, pseudovirus neutralization [35] was 0.174 µg/mL and the IC50, pseudovirus neutralization [36] was 0.044 µg/mL. The IC50, pseudovirus neutralization [37] was greater than 50 µg/mL, the IC50, pseudovirus neutralization [38] was 0.095 µg/mL and the IC50, pseudovirus neutralization [39] was 0.099 µg/mL. For the same substance, the neutralization IC50 [40] was greater than 50 µg/mL.
